Measurements: the supplement of paper PMC10065799, “High-throughput profiling of sequence recognition by tyrosine kinases and SH2 domains using bacterial peptide display” (eLife, 2023)

Experiments:
[1] = tested on: AncSZ; test: phosphorylation enrichment, bacterial display (enrichment ratio); higher = better substrate or ligand; peptides without Tyr show the background
[2] = biological target: EPHB1 (UniProt P54762); test: as above
[3] = biological target: EPHB2 (UniProt P29323); test: as above
Sequence of EPHB2 (P29323 whole entry, looked up): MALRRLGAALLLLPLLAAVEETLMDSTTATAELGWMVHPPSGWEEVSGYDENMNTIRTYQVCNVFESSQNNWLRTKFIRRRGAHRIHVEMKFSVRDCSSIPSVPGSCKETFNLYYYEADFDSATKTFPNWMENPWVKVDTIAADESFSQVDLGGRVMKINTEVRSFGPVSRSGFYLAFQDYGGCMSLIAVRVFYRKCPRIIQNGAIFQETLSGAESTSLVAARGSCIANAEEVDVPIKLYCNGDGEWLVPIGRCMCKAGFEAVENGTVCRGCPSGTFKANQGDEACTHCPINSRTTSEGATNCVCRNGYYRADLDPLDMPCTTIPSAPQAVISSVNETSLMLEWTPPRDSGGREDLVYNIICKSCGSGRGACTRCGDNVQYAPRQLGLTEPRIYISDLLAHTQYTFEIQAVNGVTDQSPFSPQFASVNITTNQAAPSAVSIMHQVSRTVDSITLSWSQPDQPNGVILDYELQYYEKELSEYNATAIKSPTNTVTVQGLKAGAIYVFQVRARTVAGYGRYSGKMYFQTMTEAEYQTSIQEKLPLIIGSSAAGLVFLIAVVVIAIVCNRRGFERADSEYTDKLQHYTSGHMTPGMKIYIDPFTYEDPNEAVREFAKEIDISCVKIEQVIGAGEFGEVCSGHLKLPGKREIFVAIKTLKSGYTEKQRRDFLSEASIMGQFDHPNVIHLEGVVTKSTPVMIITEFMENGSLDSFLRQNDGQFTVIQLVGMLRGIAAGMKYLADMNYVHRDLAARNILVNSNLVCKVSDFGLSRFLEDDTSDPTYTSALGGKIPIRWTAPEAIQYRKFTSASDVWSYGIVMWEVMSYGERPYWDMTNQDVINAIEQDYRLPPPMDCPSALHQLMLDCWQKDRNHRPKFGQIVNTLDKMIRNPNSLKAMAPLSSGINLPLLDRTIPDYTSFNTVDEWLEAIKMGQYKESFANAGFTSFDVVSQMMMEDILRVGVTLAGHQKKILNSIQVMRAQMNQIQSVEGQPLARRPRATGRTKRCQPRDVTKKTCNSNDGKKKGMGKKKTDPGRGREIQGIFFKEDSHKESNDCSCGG

[4] = biological target: FGFR1 (UniProt P11362); test: as above
[5] = biological target: FGFR3 (UniProt P22607); test: as above
Sequence of FGFR3 (P22607 whole entry, looked up): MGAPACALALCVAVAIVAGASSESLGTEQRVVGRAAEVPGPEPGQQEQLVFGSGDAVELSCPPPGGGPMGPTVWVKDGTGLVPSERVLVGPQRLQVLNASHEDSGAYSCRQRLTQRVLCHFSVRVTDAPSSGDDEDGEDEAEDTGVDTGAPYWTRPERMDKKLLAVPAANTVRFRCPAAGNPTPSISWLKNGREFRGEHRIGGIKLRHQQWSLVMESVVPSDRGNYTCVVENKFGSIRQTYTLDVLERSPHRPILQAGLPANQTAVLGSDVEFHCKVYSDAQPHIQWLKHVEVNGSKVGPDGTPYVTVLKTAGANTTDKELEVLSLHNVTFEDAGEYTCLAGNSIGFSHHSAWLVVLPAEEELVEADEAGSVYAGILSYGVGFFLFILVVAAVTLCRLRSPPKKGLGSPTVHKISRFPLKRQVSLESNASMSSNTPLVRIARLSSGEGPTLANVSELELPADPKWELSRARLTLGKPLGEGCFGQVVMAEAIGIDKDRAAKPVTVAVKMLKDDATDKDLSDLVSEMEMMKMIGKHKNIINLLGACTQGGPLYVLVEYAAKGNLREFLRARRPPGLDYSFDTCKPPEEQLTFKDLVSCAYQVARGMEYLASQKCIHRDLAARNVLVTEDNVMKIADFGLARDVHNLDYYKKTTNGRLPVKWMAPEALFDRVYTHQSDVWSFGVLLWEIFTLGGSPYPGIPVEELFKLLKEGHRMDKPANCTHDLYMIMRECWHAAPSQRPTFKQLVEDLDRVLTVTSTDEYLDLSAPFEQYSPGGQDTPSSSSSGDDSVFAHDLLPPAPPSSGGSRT

[6] = tested on: Fer (mouse); test: as above
[7] = biological target: Fes (UniProt P07332); test: as above
[8] = biological target: Fyn (UniProt P06241); test: as above
Sequence of Fyn (P06241 whole entry, looked up): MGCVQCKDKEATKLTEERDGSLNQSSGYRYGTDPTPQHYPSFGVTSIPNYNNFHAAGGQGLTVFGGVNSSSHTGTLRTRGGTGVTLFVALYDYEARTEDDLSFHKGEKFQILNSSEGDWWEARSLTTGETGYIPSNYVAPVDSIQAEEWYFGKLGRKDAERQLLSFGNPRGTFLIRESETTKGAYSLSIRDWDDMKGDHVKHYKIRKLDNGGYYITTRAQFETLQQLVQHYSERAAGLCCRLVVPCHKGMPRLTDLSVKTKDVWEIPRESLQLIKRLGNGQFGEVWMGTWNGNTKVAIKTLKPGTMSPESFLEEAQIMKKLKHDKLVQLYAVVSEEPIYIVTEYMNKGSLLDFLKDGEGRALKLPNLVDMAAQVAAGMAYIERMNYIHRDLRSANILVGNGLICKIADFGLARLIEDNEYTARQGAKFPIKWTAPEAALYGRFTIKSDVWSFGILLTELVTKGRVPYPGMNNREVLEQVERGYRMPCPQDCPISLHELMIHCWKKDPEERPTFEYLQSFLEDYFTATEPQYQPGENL

[9] = biological target: Hck (UniProt P08631); test: as above
[10] = biological target: Jak2 (UniProt O60674); test: as above
Sequence of Jak2 (O60674 whole entry, looked up): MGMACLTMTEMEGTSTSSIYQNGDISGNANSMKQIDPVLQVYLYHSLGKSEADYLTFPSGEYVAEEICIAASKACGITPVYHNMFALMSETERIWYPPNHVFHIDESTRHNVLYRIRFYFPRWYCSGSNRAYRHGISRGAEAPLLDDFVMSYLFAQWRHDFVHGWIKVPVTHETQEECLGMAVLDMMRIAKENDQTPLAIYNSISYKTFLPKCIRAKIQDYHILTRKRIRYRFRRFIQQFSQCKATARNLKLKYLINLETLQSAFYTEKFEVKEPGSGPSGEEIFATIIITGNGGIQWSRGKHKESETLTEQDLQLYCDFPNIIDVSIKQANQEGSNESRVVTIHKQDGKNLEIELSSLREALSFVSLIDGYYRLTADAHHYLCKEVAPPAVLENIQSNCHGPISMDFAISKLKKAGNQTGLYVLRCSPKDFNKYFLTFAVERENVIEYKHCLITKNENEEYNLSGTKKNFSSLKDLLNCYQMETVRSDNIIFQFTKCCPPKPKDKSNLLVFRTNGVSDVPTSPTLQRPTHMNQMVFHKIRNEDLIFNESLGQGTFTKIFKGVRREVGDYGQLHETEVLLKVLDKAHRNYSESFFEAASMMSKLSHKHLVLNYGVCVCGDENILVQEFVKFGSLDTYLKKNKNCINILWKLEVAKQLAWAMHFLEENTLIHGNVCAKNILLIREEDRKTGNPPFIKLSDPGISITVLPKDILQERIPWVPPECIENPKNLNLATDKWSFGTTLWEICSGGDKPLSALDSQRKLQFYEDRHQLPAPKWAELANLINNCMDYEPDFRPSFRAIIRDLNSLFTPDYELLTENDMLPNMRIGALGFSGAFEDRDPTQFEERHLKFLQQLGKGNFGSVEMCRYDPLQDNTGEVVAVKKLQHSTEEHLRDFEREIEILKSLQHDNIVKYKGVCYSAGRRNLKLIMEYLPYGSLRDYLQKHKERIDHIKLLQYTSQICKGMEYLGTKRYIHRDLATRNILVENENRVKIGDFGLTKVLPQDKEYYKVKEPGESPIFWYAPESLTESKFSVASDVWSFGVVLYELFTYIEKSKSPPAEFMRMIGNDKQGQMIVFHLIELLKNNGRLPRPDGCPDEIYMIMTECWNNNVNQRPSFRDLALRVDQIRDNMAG

[11] = biological target: MERTK (UniProt Q12866); test: as above
[12] = tested on: c-Abl (mouse); test: as above
[13] = tested on: c-Src; test: as above
[14] = biological target: Grb2 SH2 (UniProt P62993); test: SH2 binding enrichment of the phosphorylated peptide, bacterial display (enrichment ratio); higher = better substrate or ligand; peptides without Tyr show the background
Sequence of Grb2 SH2 (P62993 whole entry, looked up): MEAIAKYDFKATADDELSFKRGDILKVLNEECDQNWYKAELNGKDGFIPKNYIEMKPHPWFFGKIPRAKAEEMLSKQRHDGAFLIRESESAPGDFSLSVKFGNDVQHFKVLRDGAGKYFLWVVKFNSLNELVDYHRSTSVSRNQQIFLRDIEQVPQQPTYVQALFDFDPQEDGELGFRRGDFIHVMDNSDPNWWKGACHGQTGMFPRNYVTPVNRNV

[15] = biological target: SHP2-C SH2; test: as above
[16] = biological target: c-Src SH2; test: as above
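For SH2 binding enrichment of the phosphorylated peptide, bacterial display in this document: peptide library displayed on the E. coli surface as eCPX fusions, selected cells deep-sequenced, score is each peptide's frequency after selection divided by its frequency in the input.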
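For phosphorylation enrichment, bacterial display in this document: 11-residue human phosphosite peptides and single-mutation variants displayed on the E. coli surface, counted by deep sequencing, each peptide's frequency after selection divided by its frequency in the unselected input library; frequency after pTyr selection over input frequency; kinase dosed for 20-30% of maximal phosphorylation in three min.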

Sequence of EPHB1 (P54762 whole entry, looked up): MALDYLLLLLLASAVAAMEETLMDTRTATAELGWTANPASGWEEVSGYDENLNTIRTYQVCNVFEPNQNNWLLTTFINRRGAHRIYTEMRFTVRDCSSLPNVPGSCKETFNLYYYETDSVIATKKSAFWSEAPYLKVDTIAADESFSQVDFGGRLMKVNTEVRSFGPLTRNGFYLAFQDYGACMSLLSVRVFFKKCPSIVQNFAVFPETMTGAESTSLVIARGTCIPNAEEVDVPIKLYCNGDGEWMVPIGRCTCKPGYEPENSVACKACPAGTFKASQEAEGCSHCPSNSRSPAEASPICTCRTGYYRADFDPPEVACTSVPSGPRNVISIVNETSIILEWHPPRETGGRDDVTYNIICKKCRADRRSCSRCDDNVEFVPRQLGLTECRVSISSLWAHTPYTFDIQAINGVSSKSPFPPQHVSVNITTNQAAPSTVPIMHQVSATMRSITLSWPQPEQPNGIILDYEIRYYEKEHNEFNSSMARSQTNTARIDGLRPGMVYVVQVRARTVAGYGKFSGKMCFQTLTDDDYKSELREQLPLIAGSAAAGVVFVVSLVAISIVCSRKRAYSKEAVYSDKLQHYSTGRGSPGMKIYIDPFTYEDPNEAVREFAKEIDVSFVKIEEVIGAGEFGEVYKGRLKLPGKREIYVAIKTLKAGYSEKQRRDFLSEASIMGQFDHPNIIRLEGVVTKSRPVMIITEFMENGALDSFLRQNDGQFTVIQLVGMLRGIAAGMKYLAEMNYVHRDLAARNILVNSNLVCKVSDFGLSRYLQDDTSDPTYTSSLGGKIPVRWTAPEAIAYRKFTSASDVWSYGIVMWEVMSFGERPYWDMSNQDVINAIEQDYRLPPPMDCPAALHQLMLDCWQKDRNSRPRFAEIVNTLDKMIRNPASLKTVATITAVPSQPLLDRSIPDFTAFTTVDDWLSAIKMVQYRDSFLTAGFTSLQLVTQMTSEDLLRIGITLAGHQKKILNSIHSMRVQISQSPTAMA

| Sequence | phosphorylation enrichment [1] | phosphorylation enrichment [2] | phosphorylation enrichment [3] | phosphorylation enrichment [4] | phosphorylation enrichment [5] | phosphorylation enrichment [6] | phosphorylation enrichment [7] | phosphorylation enrichment [8] | phosphorylation enrichment [9] | phosphorylation enrichment [10] | phosphorylation enrichment [11] | phosphorylation enrichment [12] | phosphorylation enrichment [13] | SH2 binding enrichment [14] | SH2 binding enrichment [15] | SH2 binding enrichment [16] |
| --- | --- | --- | --- | --- | --- | --- | --- | --- | --- | --- | --- | --- | --- | --- | --- | --- |
| KLQKYYRQNPD [EHHADH_Y683] | 0.565 | 0.765 | 0.464 | 0.413 | 0.419 | 0.417 | 0.591 | 0.348 | 0.448 | 0.474 | 0.371 | 0.482 | 0.42 | 0.948 | 0.694 | 0.503 |
| KMGNIYRTEYG [MRPL3_Y265] | 0.621 | 0.488 | 0.373 | 0.413 | 0.526 | 0.334 | 0.701 | 0.475 | 0.477 | 0.577 | 0.539 | 0.496 | 0.536 | 0.884 | 0.73 | 0.529 |
| KMLEKYKERLN [TLK2_Y259] | 0.634 | 0.381 | 0.5 | 0.46 | 0.557 | 0.444 | 0.789 | 0.43 | 0.492 | 0.834 | 0.475 | 1.27 | 0.463 | 0.838 | 0.641 | 0.693 |
| KNEVLYDGENH [ARFGEF1_Y314] | 0.943 | 0.403 | 0.525 | 0.399 | 0.475 | 0.401 | 0.836 | 0.422 | 0.436 | 0.763 | 0.398 | 0.668 | 0.418 | 0.978 | 0.687 | 0.665 |
| KNKKDYFDMFE [SLC26A3_Y526_YF] | 0.864 | 0.779 | 0.585 | 3.49 | 2.62 | 0.418 | 0.909 | 0.453 | 0.444 | 0.706 | 0.568 | 0.882 | 0.524 | 0.979 | 1.01 | 0.595 |
| KNRDVYSSDYF [USP24_Y2134] | 1.1 | 3.39 | 4.03 | 2.07 | 1.15 | 0.495 | 0.944 | 1.19 | 1 | 0.945 | 5.77 | 0.656 | 2.67 | 0.796 | 0.739 | 0.644 |
| KNSFKYFMSDD [ATRX_Y203_C200S_YF] | 0.856 | 0.475 | 0.55 | 0.416 | 0.638 | 0.412 | 1.02 | 0.392 | 0.478 | 0.869 | 0.418 | 0.628 | 0.425 | 0.942 | 0.587 | 0.556 |
| KPGLKYVTYGN [GALNTL5_Y404] | 0.505 | 0.38 | 0.624 | 0.394 | 0.409 | 0.379 | 0.547 | 0.39 | 0.484 | 0.498 | 0.345 | 0.389 | 0.363 | 1.34 | 2.11 | 1.11 |
| KPGLVYNKVNP [SPRED3_Y72] | 0.704 | 0.413 | 0.395 | 0.383 | 0.453 | 0.409 | 0.595 | 0.424 | 0.603 | 0.936 | 0.402 | 0.675 | 0.539 | 0.951 | 0.788 | 0.815 |
| KPLMPYMRFSR [SMARCE1_Y73_YF] | 1.3 | 0.385 | 0.464 | 0.466 | 0.547 | 0.352 | 0.872 | 0.591 | 0.493 | 0.843 | 0.479 | 0.99 | 0.508 | 0.838 | 0.831 | 0.412 |
| KQMEQYMSFHK [HCN1_Y417_V414M] | 0.5 | 0.393 | 0.369 | 0.408 | 0.547 | 0.313 | 0.573 | 1.47 | 4.18 | 0.516 | 0.419 | 0.416 | 1.76 | 0.822 | 0.429 | 0.576 |
| KQRKEYMHRWQ [IQGAP2_Y710_R714W] | 0.846 | 0.652 | 0.746 | 0.577 | 1.16 | 0.617 | 1.02 | 0.523 | 0.613 | 1.68 | 0.519 | 1.05 | 0.584 | 2.29 | 2.21 | 2.02 |
| KRAIGHYSATS [FAM120A_Y327_Y327H] | 0.459 | 0.305 | 0.286 | 0.319 | 0.423 | 0.356 | 0.498 | 0.346 | 0.312 | 0.439 | 0.355 | 0.474 | 0.434 | 1.12 | 0.564 | 0.778 |
| KRAIGYYSATS [FAM120A_Y327] | 0.477 | 0.366 | 0.387 | 0.412 | 0.389 | 0.383 | 0.472 | 0.456 | 0.406 | 0.439 | 0.55 | 0.437 | 0.359 | 0.864 | 0.821 | 1.41 |
| KRISCYEARFQ [PFKFB3_Y194_S197R_YF] | 0.669 | 0.398 | 0.476 | 0.344 | 0.496 | 0.399 | 0.845 | 0.382 | 0.425 | 0.647 | 0.395 | 0.728 | 0.497 | 0.999 | 0.941 | 0.64 |
| KRISCYEARYQ [PFKFB3_Y194_S197R] | 0.708 | 0.466 | 0.415 | 0.392 | 0.523 | 0.4 | 0.746 | 0.479 | 0.388 | 0.735 | 0.357 | 0.526 | 0.365 | 0.915 | 0.682 | 0.591 |
| KRLDGYVLEGW [IGSF9_Y656_R661W] | 0.712 | 0.48 | 0.484 | 0.542 | 0.511 | 0.506 | 0.835 | 0.484 | 0.453 | 0.651 | 0.381 | 0.532 | 0.418 | 0.844 | 0.819 | 2.36 |
